In patent US20110086806A1 (published 2011):

T1: recombinant human IL-23R/Fc chimera (R&D Systems) (human, UniProt Q5VWK5 24-355)
T1 construct: Bought; also called rhIL23RFc
T1 sequence (looked up): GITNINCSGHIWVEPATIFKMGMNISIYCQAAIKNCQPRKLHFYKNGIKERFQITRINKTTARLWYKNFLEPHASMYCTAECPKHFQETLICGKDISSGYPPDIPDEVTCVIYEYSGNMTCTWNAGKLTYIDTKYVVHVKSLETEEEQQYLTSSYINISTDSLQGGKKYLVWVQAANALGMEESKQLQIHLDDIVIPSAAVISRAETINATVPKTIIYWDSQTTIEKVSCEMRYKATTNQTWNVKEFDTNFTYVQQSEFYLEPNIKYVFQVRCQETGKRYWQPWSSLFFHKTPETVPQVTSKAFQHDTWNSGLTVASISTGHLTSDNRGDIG


Tests used:
[1] = biological target: T1, recombinant human IL-23R/Fc chimera …; test: SPR
Experimental: A Biacore 3000 biosensor (GE Healthcare) was used to evaluate the interaction of human IL-23R and receptor binders. Immobilization of an anti-human IgG Fc antibody (GE Healthcare) to the CM5 chip (GE Healthcare) was performed using standard amine coupling chemistry, and this modified surface was used to capture a recombinant human IL-23R/Fc fusion protein (R&D Systems). A low-density receptor surface, less than 200 RU, was used for all of the analyses. ATRIMER™ polypeptide complex dilutions (1-500 nM) were injected over the IL-23R surface at 30 μl/min and kinetic constants were derived from the sensorgram data using the Biaevaluation software (version 3.1, GE Healthcare). Data collection was 3 minutes for the association and 5 minutes for dissociation. The anti-human IgG surface was regenerated with a 30s pulse of 3M magnesium chloride. All sensorgrams were double-referenced against an activated and blocked flow-cell as well as buffer injections.

[2] = biological target: T1, recombinant human IL-23R/Fc chimera …; test: competition ELISA vs IL-23

Ka [1] | Kd [1] | koff [1] | kon [1] | Ratio IC50 to 056-53.H4E IC50 [2] | Binder
1.77e+09 M⁻¹ | 0.565 nM | 0.000262 s⁻¹ | 463000 M⁻¹ s⁻¹ | 1.6 | 101-51-1A3 ATRIMER complex (designed binder, Forms a homotrimer through the tetranectin coiled coil; one protomer is given., not shown: C-terminal tag: His/Myc (pANA4) or HA-StrepII (pANA10)) EPPTQKPKKIVNAKKDVVNTKMFEELKSRLDTLAQEVALLKEQQALQTVCLKGTKVHMKCFLAFTQTKTFHEASEDCISRGGTLSTPQTGSENDALYEYLRQSVGNEAEIWLGLNGSALTNTWVDMTGARIAYKNWEHQPVYQPGGGWGVFGENCAVLSGAANGKWFDKRCRDQLPYICQFGIV
– | – | – | – | 1.3 | 105-78-2D1 ATRIMER complex (designed binder) EPPTQKPKKIVNAKKDVVNTKMFEELKSRLDTLAQEVALLKEQQALQTVCLKGTKVHMKCFLAFTQTKTFHEASEDCISRGGTLSTPQTGSENDALYEYLRQSVGNEAEIWLGLNGSLRTHTWVDMTGARIAYKNWETEITAQPDGGFGVFGENCAVLSGAANGKWFDKRCRDQLPYICQFGIV
– | – | – | – | 1 | 105-61-4G5 ATRIMER complex (designed binder) EPPTQKPKKIVNAKKDVVNTKMFEELKSRLDTLAQEVALLKEQQALQTVCLKGTKVHMKCFLAFTQTKTFHEASEDCISRGGTLSTPQTGSENDALYEYLRQSVGNEAEIWLGLNGSPLTNTWVDMTGARIAYKNWETEITAQPDGGFGVFGENCAVLSGAANGKWFDKRCRDQLPYICQFGIV
1.71e+09 M⁻¹ | 0.584 nM | 0.000289 s⁻¹ | 495000 M⁻¹ s⁻¹ | 1 | 101-51-1A5 ATRIMER complex (designed binder, Forms a homotrimer through the tetranectin coiled coil; one protomer is given., not shown: C-terminal tag: His/Myc (pANA4) or HA-StrepII (pANA10)) EPPTQKPKKIVNAKKDVVNTKMFEELKSRLDTLAQEVALLKEQQALQTVCLKGTKVHMKCFLAFTQTKTFHEASEDCISRGGTLSTPQTGSENDALYEYLRQSVGNEAEIWLGLNGSALTNTWVDMTGARIAYKNWENGHEPQPRGGFGYFGENCAVLSGAANGKWFDKRCRDQLPYICQFGIV
– | – | – | – | 1 | 105-78-2E6 ATRIMER complex (designed binder) EPPTQKPKKIVNAKKDVVNTKMFEELKSRLDTLAQEVALLKEQQALQTVCLKGTKVHMKCFLAFTQTKTFHEASEDCISRGGTLSTPQTGSENDALYEYLRQSVGNEAEIWLGLNGSLRTNTWVDMTGARIAYKNWETEITAQPDGGFGVFGENCAVLSGAANGKWFDKRCRDQLPYICQFGIV
3.12e+09 M⁻¹ | 0.321 nM | 0.000364 s⁻¹ | 1.13e+06 M⁻¹ s⁻¹ | 1 | 101-54-4B3 ATRIMER complex (designed binder) EPPTQKPKKIVNAKKDVVNTKMFEELKSRLDTLAQEVALLKEQQALQTVCLKGTKVHMKCFLAFTQTKTFHEASEDCISRGGTLSTPQTGSENDALYEYLRQSVGNEAEIWLGLNGSALTNTWVDMTGARIAYKNWELPPPGHPQGGFGVFGENCAVLSGAANGKWFDKRCRDQLPYICQFGIV
– | – | – | – | 4.2 | 105-20-2C4b ATRIMER complex (designed binder) EPPTQKPKKIVNAKKDVVNTKMFEELKSRLDTLAQEVALLKEQQALQTVCLKGTKVHMKCFLAFTQTKTFHEASEDCISRGGTLSTPQTGSENDALYEYLRQSVGNEAEIWLGLNGSVKTDTWVDMTGARIAYKNWETEITAQPDGGWGYFGENCAVLSGAANGKWFDKRCRDQLPYICQFGIV
– | – | – | – | 1.2 | 105-59-3A5 ATRIMER complex (designed binder, Homotrimer of three identical chains (ATRIMER complex); one chain is given., not shown: C-terminal tag: His/Myc (pANA4) or HA-StrepII (pANA10)) EPPTQKPKKIVNAKKDVVNTKMFEELKSRLDTLAQEVALLKEQQALQTVCLKGTKVHMKCFLAFTQTKTFHEASEDCISRGGTLSTPQTGSENDALYEYLRQSVGNEAEIWLGLNGSLLTNTWVDMTGARIAYKNWETEITAQPDGGFGVFGENCAVLSGAANGKWFDKRCRDQLPYICQFGIV
– | – | – | – | 4.2 | 105-20-2F10 ATRIMER complex (designed binder, not shown: C-terminal tag: His/Myc (pANA4) or HA-StrepII (pANA10)) EPPTQKPKKIVNAKKDVVNTKMFEELKSRLDTLAQEVALLKEQQALQTVCLKGTKVHMKCFLAFTQTKTFHEASEDCISRGGTLSTPQTGSENDALYEYLRQSVGNEAEIWLGLNGSARTDTWVDMTGARIAYKNWETEITAQPDGGFGYFGENCAVLSGAANGKWFDKRCRDQLPYICQFGIV
– | – | – | – | 0.8 | 105-59-3B5 ATRIMER complex (designed binder) EPPTQKPKKIVNAKKDVVNTKMFEELKSRLDTLAQEVALLKEQQALQTVCLKGTKVHMKCFLAFTQTKTFHEASEDCISRGGTLSTPQTGSENDALYEYLRQSVGNEAEIWLGLNGSPITDTWVDMTGARIAYKNWETEITAQPDGGFGVFGENCAVLSGAANGKWFDKRCRDQLPYICQFGIV
1.05e+09 M⁻¹ | 0.955 nM | 0.000329 s⁻¹ | 345000 M⁻¹ s⁻¹ | 2.2 | 101-51-1A9 ATRIMER complex (designed binder) EPPTQKPKKIVNAKKDVVNTKMFEELKSRLDTLAQEVALLKEQQALQTVCLKGTKVHMKCFLAFTQTKTFHEASEDCISRGGTLSTPQTGSENDALYEYLRQSVGNEAEIWLGLNGSALTNTWVDMTGARIAYKNWEPARQPQPGGGFGYFGENCAVLSGAANGKWFDKRCRDQLPYICQFGIV
6.62e+08 M⁻¹ | 1.51 nM | 0.000396 s⁻¹ | 262000 M⁻¹ s⁻¹ | 3.7 | 101-51-1A8 ATRIMER complex (designed binder, Forms a homotrimer through the tetranectin coiled coil; one protomer is given., not shown: C-terminal tag: His/Myc (pANA4) or HA-StrepII (pANA10)) EPPTQKPKKIVNAKKDVVNTKMFEELKSRLDTLAQEVALLKEQQALQTVCLKGTKVHMKCFLAFTQTKTFHEASEDCISRGGTLSTPQTGSENDALYEYLRQSVGNEAEIWLGLNGSALTNTWVDMTGARIAYKNWERTPPWQPEGGFGYFGENCAVLSGAANGKWFDKRCRDQLPYICQFGIV
– | – | – | – | 4.8 | 105-20-2C11 ATRIMER complex (designed binder, not shown: C-terminal tag: His/Myc (pANA4) or HA-StrepII (pANA10)) EPPTQKPKKIVNAKKDVVNTKMFEELKSRLDTLAQEVALLKEQQALQTVCLKGTKVHMKCFLAFTQTKTFHEASEDCISRGGTLSTPQTGSENDALYEYLRQSVGNEAEIWLGLNGSVRTDTWVDMTGARIAYKNWETEITAQPDGGWGYFGENCAVLSGAANGKWFDKRCRDQLPYICQFGIV
– | – | – | – | 3.5 | 105-20-2C7 ATRIMER complex (designed binder, not shown: small tags and cut ends) EPPTQKPKKIVNAKKDVVNTKMFEELKSRLDTLAQEVALLKEQQALQTVCLKGTKVHMKCFLAFTQTKTFHEASEDCISRGGTLSTPQTGSENDALYEYLRQSVGNEAEIWLGLNGSVTTDTWVDMTGARIAYKNWETEITAQPDGGFGYFGENCAVLSGAANGKWFDKRCRDQLPYICQFGIV
– | – | – | – | 5.3 | 105-20-2G5 ATRIMER complex (designed binder) EPPTQKPKKIVNAKKDVVNTKMFEELKSRLDTLAQEVALLKEQQALQTVCLKGTKVHMKCFLAFTQTKTFHEASEDCISRGGTLSTPQTGSENDALYEYLRQSVGNEAEIWLGLNGSRRTDTWVDMTGARIAYKNWETEITAQPDGGWGYFGENCAVLSGAANGKWFDKRCRDQLPYICQFGIV
2.16e+09 M⁻¹ | 0.463 nM | 0.000573 s⁻¹ | 1.24e+06 M⁻¹ s⁻¹ | 1.1 | 101-54-4A12 ATRIMER complex (designed binder, also called 101-54-4Al2) EPPTQKPKKIVNAKKDVVNTKMFEELKSRLDTLAQEVALLKEQQALQTVCLKGTKVHMKCFLAFTQTKTFHEASEDCISRGGTLSTPQTGSENDALYEYLRQSVGNEAEIWLGLNGSRRSGVWVDMTGARIAYKNWEPPGPAHPQGGFGVFGENCAVLSGAANGKWFDKRCRDQLPYICQFGIV
– | – | – | – | 2.9 | 105-20-2C4a ATRIMER complex (designed binder, ATRIMER complex: homotrimer of three copies of this chain, joined by the tetranectin coiled coil, not shown: C-terminal tag: Myc/His (pANA4) or HA-StrepII (pANA10)) EPPTQKPKKIVNAKKDVVNTKMFEELKSRLDTLAQEVALLKEQQALQTVCLKGTKVHMKCFLAFTQTKTFHEASEDCISRGGTLSTPQTGSENDALYEYLRQSVGNEAEIWLGLNGSAKTDTWVDMTGARIAYKNWETEITAQPDGGWGYFGENCAVLSGAANGKWFDKRCRDQLPYICQFGIV
– | – | – | – | 0.8 | 105-61-4G3 ATRIMER complex (designed binder, also called 61-p4G3) EPPTQKPKKIVNAKKDVVNTKMFEELKSRLDTLAQEVALLKEQQALQTVCLKGTKVHMKCFLAFTQTKTFHEASEDCISRGGTLSTPQTGSENDALYEYLRQSVGNEAEIWLGLNGSLRTDTWVDMTGARIAYKNWETEITAQPDGGFGVFGENCAVLSGAANGKWFDKRCRDQLPYICQFGIV
1.34e+09 M⁻¹ | 0.746 nM | 0.000415 s⁻¹ | 557000 M⁻¹ s⁻¹ | 2.6 | 101-51-1A6 ATRIMER complex (designed binder, Forms a homotrimer through the tetranectin coiled coil; one protomer is given., not shown: C-terminal tag: His/Myc (pANA4) or HA-StrepII (pANA10)) EPPTQKPKKIVNAKKDVVNTKMFEELKSRLDTLAQEVALLKEQQALQTVCLKGTKVHMKCFLAFTQTKTFHEASEDCISRGGTLSTPQTGSENDALYEYLRQSVGNEAEIWLGLNGSALTNTWVDMTGARIAYKNWENNLSAQPRGGFGYFGENCAVLSGAANGKWFDKRCRDQLPYICQFGIV
4.85e+08 M⁻¹ | 2.06 nM | 0.000345 s⁻¹ | 167000 M⁻¹ s⁻¹ | 8.7 | 101-51-1A10 ATRIMER complex (designed binder, Forms a homotrimer through the tetranectin coiled coil; one protomer is given., not shown: C-terminal tag: His/Myc (pANA4) or HA-StrepII (pANA10)) EPPTQKPKKIVNAKKDVVNTKMFEELKSRLDTLAQEVALLKEQQALQTVCLKGTKVHMKCFLAFTQTKTFHEASEDCISRGGTLSTPQTGSENDALYEYLRQSVGNEAEIWLGLNGSALTNTWVDMTGARIAYKNWEHPLPPQPSGGFGYFGENCAVLSGAANGKWFDKRCRDQLPYICQFGIV
